Measured values from IntAct's records for PubMed 26656091.

B1: Adapter molecule crk (Homo sapiens), P46108-1 (parent)
chain: MAGNFDSEERSSWYWGRLSRQEAVALLQGQRHGVFLVRDSSTSPGDYVLSVSENSRVSHYIINSSGPRPPVPPSPAQPPPGVSPSRLRIGDQEFDSLPALLEFYKIHYLDTTTLIEPVSRSRQGSGVILRQEEAEYVRALFDFNGNDEEDLPFKKGDILRIRDKPEEQWWNAEDSEGKRGMIPVPYVEKYRPASASVSALIGGNQEGSHPQPLGGPEPGPYAQPSVNTPLPNLQNGPIYARVIQKRVPNAYDKTALALEVGELVKVTKINVSGQWEGECNGKRGHFPFTHVRLLDQQNPDEDFS

Variants of: B1
Conditions: with ppia_human PPIA

Row | effect of a mutation on the interaction | Variant
1 | disrupting interaction strength | P220A

Variants of: B1
Conditions: with ppia_human PPIA
Remark: another data set of the same source

Row | effect of a mutation on the interaction | Variant
2 | increasing interaction strength | P218F
